The text below walks through data of patent US20230406935A1 (F STAR THERAPEUTICS, published 2023).

Experiment [1] concerns the target T1, Monomeric His-tagged human PD-L1 (Acro biosystems PD1-H5229) (human, UniProt Q9NZQ7 19-238).
T1 construct: also called hPD-L1-his; PD-L1-his
Briefly: SPR Biacore T200, Fcab captured on protein A chip, monomeric antigen in flow, 1:1 fit. (In general: SPR reads the build-up and loss of mass on a sensor chip optically.)

Experiment [2] concerns the target T2, Monomeric cynomolgus PD-L1 (Acro Biosciences PD1-C52H4) (cynomolgus, UniProt Q9NZQ7 19-238 (human entry)).
T2 construct: also called cynomolgus monomeric PD-L1
Described as above.

Experiment [3] deals with T3, Cynomolgus PD-L1 expressed on HEK 293 cells (cynomolgus, UniProt Q9NZQ7 19-290 (human entry)).
T3 construct: also called cell-expressed cynomolgus PD-L1
T3 sequence (Q9NZQ7 other isoform, or with tags, fused parts or gaps limits assumed): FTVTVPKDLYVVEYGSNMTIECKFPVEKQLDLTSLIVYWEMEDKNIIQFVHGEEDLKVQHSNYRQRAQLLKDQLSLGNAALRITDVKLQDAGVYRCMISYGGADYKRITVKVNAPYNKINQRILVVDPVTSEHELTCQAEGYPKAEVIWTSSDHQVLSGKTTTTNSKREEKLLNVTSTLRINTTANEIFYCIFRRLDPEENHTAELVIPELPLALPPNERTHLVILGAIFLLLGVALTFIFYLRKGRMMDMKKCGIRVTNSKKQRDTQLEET
Put plainly: flow cytometry, HEK293 cells overexpressing the target, anti-human Fc 488. How it is done:
(§1) Cell binding assays were performed by incubating Fcabs or mAb² proteins with either control HEK293 cells or HEK293 cells overexpressing hPD-L1 or cynomolgus PD-L1 cells for 1 hour at 4° C. Fcab/mAb binding was subsequently detected using an anti-human Fc 488 detection antibody. Fluorescent signal intensities were measured using a FACS canto.

In experiment [4] the target is T4, Human PD-L1 expressed on cells (human, UniProt Q9NZQ7 19-290).
T4 construct: also called cell-surface human PD-L1; hPD-L1
T4 sequence (Q9NZQ7 19-290 limits assumed): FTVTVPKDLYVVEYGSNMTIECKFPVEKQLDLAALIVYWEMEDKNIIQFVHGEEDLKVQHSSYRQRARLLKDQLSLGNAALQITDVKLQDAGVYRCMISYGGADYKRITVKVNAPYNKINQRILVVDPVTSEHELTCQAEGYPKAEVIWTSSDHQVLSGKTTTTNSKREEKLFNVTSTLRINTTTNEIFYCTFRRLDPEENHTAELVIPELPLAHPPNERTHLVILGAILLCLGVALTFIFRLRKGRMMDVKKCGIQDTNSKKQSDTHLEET
Described as above. The method, then:
as §1

For experiment [5], the target named is T5, Biotinylated hPD-L1-Fc-Avi (human, UniProt Q9NZQ7 19-238). Briefly: cell-based RBA, blocking of hPD-L1-Fc-Avi binding to HEK293 hPD-1 cells. The method, then:
(§2) The ability of the Fcabs and mock mAb² to block hPD-1/hPD-L1 and hPD-L1/hCD80 interactions was tested in cell-based Receptor Binding Assays (RBA). […] The mix was incubated for another hour with HEK293 cells overexpressing either hPD-1 or hCD80.

Experiment [6] concerns the target T5, Biotinylated hPD-L1-Fc-Avi. Briefly: cell-based RBA, blocking of hPD-L1-Fc-Avi binding to HEK293 hCD80 cells. The method, then: as §2

T1 sequence (Q9NZQ7 19-238 limits assumed): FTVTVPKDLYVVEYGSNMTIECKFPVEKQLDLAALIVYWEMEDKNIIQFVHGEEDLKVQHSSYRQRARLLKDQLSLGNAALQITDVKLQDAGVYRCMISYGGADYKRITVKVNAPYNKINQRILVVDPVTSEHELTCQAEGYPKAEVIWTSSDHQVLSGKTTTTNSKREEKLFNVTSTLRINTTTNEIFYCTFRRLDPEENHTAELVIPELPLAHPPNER
T5 sequence (Q9NZQ7 19-238 limits assumed): as above
T2 sequence (Q9NZQ7 other isoform, or with tags, fused parts or gaps limits assumed): as the sequence (Q9NZQ7 19-238 limits assumed) above, with A33T, A34S, S62N, R68Q, Q82R, F173L, T185A, T192I, H215L counted along it

B1: Fcab FS17-33-289 (designed binder)
chain: TCPPCPAPELLGGPSVFLFPPKPKDTLMISRTPEVTCVVVDVSHEDPEVKFNWYVDGVEVHNAKTKPREEQYNSTYRVVSVLTVLHQDWLNGKEYKCKVSNKALPAPIEKTISKAKGQPREPQVYTLPPSRDESGYWVSLTCLVKGFYPSDIVVEWESNGEPQYWAKTTPPVLDSDGSFFLYSKLTVSNWRWQLDDFSCSVMHEALHNHYTQKSLSLSPGK
Regarding B1, the Kd in experiment [1] was determined as 0.54 nM; in experiment [2], 0.66 nM; in experiment [3], 0.44 nM; in experiment [4], 1 nM. Besides, the results for the EC50 in experiment [5] and in experiment [6] were 10.1 nM and 9.2 nM, respectively.

B2: Fcab FS17-33-334 (designed binder)
chain: TCPPCPAPELLGGPSVFLFPPKPKDTLMISRTPEVTCVVVDVSHEDPEVKFNWYVDGVEVHNAKTKPREEQYNSTYRVVSVLTVLHQDWLNGKEYKCKVSNKALPAPIEKTISKAKGQPREPQVYTLPPSRDESGYWVSLTCLVKGFYPSDIAVEWESNGEPQYWAKTTPPVLDSDGSFFLYSKLTVSNWRWQLDDFSCSVMHEALHNHYTQKSLSLSPGK
Take B2: the Kd in experiment [1] worked out at 1.93 nM; in experiment [2] it was 2.18 nM; in experiment [3], 0.68 nM; in experiment [4], 2.06 nM. For the same molecule, the figures for the EC50 in experiment [5] and in experiment [6] were 0.99 nM and 0.55 nM, respectively.

B3: Fcab FS17-33-288 (designed binder)
chain: TCPPCPAPELLGGPSVFLFPPKPKDTLMISRTPEVTCVVVDVSHEDPEVKFNWYVDGVEVHNAKTKPREEQYNSTYRVVSVLTVLHQDWLNGKEYKCKVSNKALPAPIEKTISKAKGQPREPQVYTLPPSRDESGYWVSLTCLVKGFYPSDIVVEWESNGEPQYWAKTTPPVLDSDGSFFLYSKLTVSNWRWQIDDFSCSVMHEALHNHYTQKSLSLSPGK
Take B3: the dissociation constant Kd in experiment [1] was determined as 1.6 nM; in experiment [2], 2.1 nM; in experiment [3], 2.6 nM; in experiment [4], 2.5 nM. Also, the EC50 in experiment [5] was found to be 2.8 nM; in experiment [6] it was 0.79 nM.

B4: Fcab FS17-33-296 (designed binder)
chain: TCPPCPAPELLGGPSVFLFPPKPKDTLMISRTPEVTCVVVDVSHEDPEVKFNWYVDGVEVHNAKTKPREEQYNSTYRVVSVLTVLHQDWLNGKEYKCKVSNKALPAPIEKTISKAKGQPREPQVYTLPPSRDESGYWVSLTCLVKGFYPSDIVVEWESNGEPQYWAKTTPPVLDSDGSFFLYSKLTVSNWRWQVDDFSCSVMHEALHNHYTQKSLSLSPGK
As to B4, the Kd was found to be 0.73 nM in experiment [1], 0.87 nM in experiment [2], 0.5 nM in experiment [3] and 1 nM in experiment [4]. The half-maximal effective concentration (EC50) worked out at 9 nM in experiment [5] and 8.8 nM in experiment [6].

In general, Kd refers to the constant that tells how readily two partners part at equilibrium. A high value points to a looser complex. What is called EC50 is the concentration at which the effect is half-maximal.
